Measured values published in patent US20230357348A1 (AstraZeneca / MedImmune, published 2023).
Starred links: 1 amine or outer side, 2 acyl side, 3 side chain; linkers in the order of their positions; H or OH if unused. Non-standard residues stand in square brackets, D forms with d. Groups on a side chain read outwards from the residue. No end group written: not given here. *: point of attachment. C20 diacid = O=C(O)CCCCCCCCCCCCCCCCCCC(=O)*; C18 diacid = O=C(O)CCCCCCCCCCCCCCCCC(=O)*; γGlu = O=C(O)[C@H](CCC(=O)[*:2])N[*:1]; αMeF = C[C@](N)(Cc1ccccc1)C(=O)O; AEEA = NCCOCCOCC(=O)O; Aib = CC(C)(N)C(=O)O

Experiments:
[1] = molecular target: human GLP-1 receptor (hGLP-1R) (human, UniProt P43220 24-463); experiment: cell-based or functional assay
[2] = molecular target: human glucagon receptor (hGCGR) (human, UniProt P47871 26-477); experiment: cell-based or functional assay
Chain of human glucagon receptor (hGCGR) (P47871 26-477): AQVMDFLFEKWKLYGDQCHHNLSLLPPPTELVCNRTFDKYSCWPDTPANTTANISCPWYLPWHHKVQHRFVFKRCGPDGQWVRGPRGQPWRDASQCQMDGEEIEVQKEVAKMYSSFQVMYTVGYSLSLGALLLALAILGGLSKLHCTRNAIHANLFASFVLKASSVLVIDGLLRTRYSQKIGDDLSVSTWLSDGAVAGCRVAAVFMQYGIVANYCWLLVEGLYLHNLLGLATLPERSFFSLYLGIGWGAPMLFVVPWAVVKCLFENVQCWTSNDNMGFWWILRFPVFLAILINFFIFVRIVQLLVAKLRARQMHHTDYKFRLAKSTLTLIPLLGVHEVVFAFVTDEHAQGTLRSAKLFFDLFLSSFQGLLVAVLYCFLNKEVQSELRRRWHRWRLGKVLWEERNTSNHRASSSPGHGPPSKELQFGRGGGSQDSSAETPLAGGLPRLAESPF

Binder | hGLP-1R EC50 (pM) [1] [pM] | hGluc-R EC50 (pM) [2] [pM]
H[Aib]QGTFTSDVSK[αMeF]LDSK([AEEA-AEEA-γGlu-C18 diacid])RAQDFVQ[Aib]LVAT-OH (N-terminus assumed; SMILES CC(C)C[C@H](NC(=O)C(C)(C)NC(=O)[C@H](CCC(N)=O)NC(=O)[C@@H](NC(=O)[C@H](Cc1ccccc1)NC(=O)[C@H](CC(=O)O)NC(=O)[C@H](CCC(N)=O)NC(=O)[C@H](C)NC(=O)[C@H](CCCNC(=N)N)NC(=O)[C@H](CCCCNC(=O)COCCOCCNC(=O)COCCOCCNC(=O)CC[C@H](NC(=O)CCCCCCCCCCCCCCCCC(=O)O)C(=O)O)NC(=O)[C@H](CO)NC(=O)[C@H](CC(=O)O)NC(=O)[C@H](CC(C)C)NC(=O)[C@](C)(Cc1ccccc1)NC(=O)[C@H](CCCCN)NC(=O)[C@H](CO)NC(=O)[C@@H](NC(=O)[C@H](CC(=O)O)NC(=O)[C@H](CO)NC(=O)[C@@H](NC(=O)[C@H](Cc1ccccc1)NC(=O)[C@@H](NC(=O)CNC(=O)[C@H](CCC(N)=O)NC(=O)C(C)(C)NC(=O)[C@@H](N)Cc1c[nH]cn1)[C@@H](C)O)[C@@H](C)O)C(C)C)C(C)C)C(=O)N[C@H](C(=O)N[C@@H](C)C(=O)N[C@H](C(=O)O)[C@@H](C)O)C(C)C) [Peptide 42] | 665 | 8190
HSQGS[αMeF]TSDVSK[αMeF]LDSK([γGlu-C18 diacid])AAQDFVQWIANT-NH2 (N-terminus assumed; SMILES CC[C@H](C)[C@H](NC(=O)[C@H](Cc1c[nH]c2ccccc12)NC(=O)[C@H](CCC(N)=O)NC(=O)[C@@H](NC(=O)[C@H](Cc1ccccc1)NC(=O)[C@H](CC(=O)O)NC(=O)[C@H](CCC(N)=O)NC(=O)[C@H](C)NC(=O)[C@H](C)NC(=O)[C@H](CCCCNC(=O)CC[C@H](NC(=O)CCCCCCCCCCCCCCCCC(=O)O)C(=O)O)NC(=O)[C@H](CO)NC(=O)[C@H](CC(=O)O)NC(=O)[C@H](CC(C)C)NC(=O)[C@](C)(Cc1ccccc1)NC(=O)[C@H](CCCCN)NC(=O)[C@H](CO)NC(=O)[C@@H](NC(=O)[C@H](CC(=O)O)NC(=O)[C@H](CO)NC(=O)[C@@H](NC(=O)[C@](C)(Cc1ccccc1)NC(=O)[C@H](CO)NC(=O)CNC(=O)[C@H](CCC(N)=O)NC(=O)[C@H](CO)NC(=O)[C@@H](N)Cc1c[nH]cn1)[C@@H](C)O)C(C)C)C(C)C)C(=O)N[C@@H](C)C(=O)N[C@@H](CC(N)=O)C(=O)N[C@H](C(N)=O)[C@@H](C)O) [Peptide 3] | 69 | 149
H[Aib]QGTFTSDVSK[αMeF]LDSK([γGlu-γGlu-AEEA-AEEA-γGlu-γGlu-C18 diacid])RARDFVRWLLE[Aib]G-OH (N-terminus assumed; SMILES CC(C)C[C@H](NC(=O)[C@H](Cc1c[nH]c2ccccc12)NC(=O)[C@H](CCCNC(=N)N)NC(=O)[C@@H](NC(=O)[C@H](Cc1ccccc1)NC(=O)[C@H](CC(=O)O)NC(=O)[C@H](CCCNC(=N)N)NC(=O)[C@H](C)NC(=O)[C@H](CCCNC(=N)N)NC(=O)[C@H](CCCCNC(=O)CC[C@H](NC(=O)CC[C@H](NC(=O)COCCOCCNC(=O)COCCOCCNC(=O)CC[C@H](NC(=O)CC[C@H](NC(=O)CCCCCCCCCCCCCCCCC(=O)O)C(=O)O)C(=O)O)C(=O)O)C(=O)O)NC(=O)[C@H](CO)NC(=O)[C@H](CC(=O)O)NC(=O)[C@H](CC(C)C)NC(=O)[C@](C)(Cc1ccccc1)NC(=O)[C@H](CCCCN)NC(=O)[C@H](CO)NC(=O)[C@@H](NC(=O)[C@H](CC(=O)O)NC(=O)[C@H](CO)NC(=O)[C@@H](NC(=O)[C@H](Cc1ccccc1)NC(=O)[C@@H](NC(=O)CNC(=O)[C@H](CCC(N)=O)NC(=O)C(C)(C)NC(=O)[C@@H](N)Cc1c[nH]cn1)[C@@H](C)O)[C@@H](C)O)C(C)C)C(C)C)C(=O)N[C@@H](CC(C)C)C(=O)N[C@@H](CCC(=O)O)C(=O)NC(C)(C)C(=O)NCC(=O)O) [Peptide 136] | 45.2 | 509
H[Aib]QGTFTSDVSK[αMeF]LDSK([AEEA-AEEA-γGlu-C18 diacid])RARDFVAWLLE[Aib]G-OH (N-terminus assumed; SMILES CC(C)C[C@H](NC(=O)[C@H](Cc1c[nH]c2ccccc12)NC(=O)[C@H](C)NC(=O)[C@@H](NC(=O)[C@H](Cc1ccccc1)NC(=O)[C@H](CC(=O)O)NC(=O)[C@H](CCCNC(=N)N)NC(=O)[C@H](C)NC(=O)[C@H](CCCNC(=N)N)NC(=O)[C@H](CCCCNC(=O)COCCOCCNC(=O)COCCOCCNC(=O)CC[C@H](NC(=O)CCCCCCCCCCCCCCCCC(=O)O)C(=O)O)NC(=O)[C@H](CO)NC(=O)[C@H](CC(=O)O)NC(=O)[C@H](CC(C)C)NC(=O)[C@](C)(Cc1ccccc1)NC(=O)[C@H](CCCCN)NC(=O)[C@H](CO)NC(=O)[C@@H](NC(=O)[C@H](CC(=O)O)NC(=O)[C@H](CO)NC(=O)[C@@H](NC(=O)[C@H](Cc1ccccc1)NC(=O)[C@@H](NC(=O)CNC(=O)[C@H](CCC(N)=O)NC(=O)C(C)(C)NC(=O)[C@@H](N)Cc1c[nH]cn1)[C@@H](C)O)[C@@H](C)O)C(C)C)C(C)C)C(=O)N[C@@H](CC(C)C)C(=O)N[C@@H](CCC(=O)O)C(=O)NC(C)(C)C(=O)NCC(=O)O) [Peptide 142] | 59.4 | 108
H[Aib]QGTFTSDVSK[αMeF]LDSK([γGlu-γGlu-AEEA-AEEA-γGlu-γGlu-C18 diacid])RAQDFVRWLLEG[Aib]-OH (N-terminus assumed; SMILES CC(C)C[C@H](NC(=O)[C@H](CC(C)C)NC(=O)[C@H](Cc1c[nH]c2ccccc12)NC(=O)[C@H](CCCNC(=N)N)NC(=O)[C@@H](NC(=O)[C@H](Cc1ccccc1)NC(=O)[C@H](CC(=O)O)NC(=O)[C@H](CCC(N)=O)NC(=O)[C@H](C)NC(=O)[C@H](CCCNC(=N)N)NC(=O)[C@H](CCCCNC(=O)CC[C@H](NC(=O)CC[C@H](NC(=O)COCCOCCNC(=O)COCCOCCNC(=O)CC[C@H](NC(=O)CC[C@H](NC(=O)CCCCCCCCCCCCCCCCC(=O)O)C(=O)O)C(=O)O)C(=O)O)C(=O)O)NC(=O)[C@H](CO)NC(=O)[C@H](CC(=O)O)NC(=O)[C@H](CC(C)C)NC(=O)[C@](C)(Cc1ccccc1)NC(=O)[C@H](CCCCN)NC(=O)[C@H](CO)NC(=O)[C@@H](NC(=O)[C@H](CC(=O)O)NC(=O)[C@H](CO)NC(=O)[C@@H](NC(=O)[C@H](Cc1ccccc1)NC(=O)[C@@H](NC(=O)CNC(=O)[C@H](CCC(N)=O)NC(=O)C(C)(C)NC(=O)[C@@H](N)Cc1c[nH]cn1)[C@@H](C)O)[C@@H](C)O)C(C)C)C(C)C)C(=O)N[C@@H](CCC(=O)O)C(=O)NCC(=O)NC(C)(C)C(=O)O) [Peptide 137] | 143 | 268
H[Aib]QGTFTSDVSK[αMeF]LDSK([AEEA-AEEA-γGlu-C18 diacid])RAQDFVAWLLE[Aib]G-OH (N-terminus assumed; SMILES CC(C)C[C@H](NC(=O)[C@H](Cc1c[nH]c2ccccc12)NC(=O)[C@H](C)NC(=O)[C@@H](NC(=O)[C@H](Cc1ccccc1)NC(=O)[C@H](CC(=O)O)NC(=O)[C@H](CCC(N)=O)NC(=O)[C@H](C)NC(=O)[C@H](CCCNC(=N)N)NC(=O)[C@H](CCCCNC(=O)COCCOCCNC(=O)COCCOCCNC(=O)CC[C@H](NC(=O)CCCCCCCCCCCCCCCCC(=O)O)C(=O)O)NC(=O)[C@H](CO)NC(=O)[C@H](CC(=O)O)NC(=O)[C@H](CC(C)C)NC(=O)[C@](C)(Cc1ccccc1)NC(=O)[C@H](CCCCN)NC(=O)[C@H](CO)NC(=O)[C@@H](NC(=O)[C@H](CC(=O)O)NC(=O)[C@H](CO)NC(=O)[C@@H](NC(=O)[C@H](Cc1ccccc1)NC(=O)[C@@H](NC(=O)CNC(=O)[C@H](CCC(N)=O)NC(=O)C(C)(C)NC(=O)[C@@H](N)Cc1c[nH]cn1)[C@@H](C)O)[C@@H](C)O)C(C)C)C(C)C)C(=O)N[C@@H](CC(C)C)C(=O)N[C@@H](CCC(=O)O)C(=O)NC(C)(C)C(=O)NCC(=O)O) [Peptide 141] | 264 | 392
H[Aib]QGTFTSDVSK[αMeF]LDSK([γGlu-γGlu-AEEA-AEEA-γGlu-γGlu-C20 diacid])RAQDFVRWLLE[Aib]G-OH [Peptide 139] | 630 | 984
H[Aib]QGTFTSDVSK[αMeF]LDSK([γGlu-γGlu-AEEA-AEEA-γGlu-γGlu-C18 diacid])RAQDFVRWLLE[Aib]G-OH (N-terminus assumed; SMILES CC(C)C[C@H](NC(=O)[C@H](Cc1c[nH]c2ccccc12)NC(=O)[C@H](CCCNC(=N)N)NC(=O)[C@@H](NC(=O)[C@H](Cc1ccccc1)NC(=O)[C@H](CC(=O)O)NC(=O)[C@H](CCC(N)=O)NC(=O)[C@H](C)NC(=O)[C@H](CCCNC(=N)N)NC(=O)[C@H](CCCCNC(=O)CC[C@H](NC(=O)CC[C@H](NC(=O)COCCOCCNC(=O)COCCOCCNC(=O)CC[C@H](NC(=O)CC[C@H](NC(=O)CCCCCCCCCCCCCCCCC(=O)O)C(=O)O)C(=O)O)C(=O)O)C(=O)O)NC(=O)[C@H](CO)NC(=O)[C@H](CC(=O)O)NC(=O)[C@H](CC(C)C)NC(=O)[C@](C)(Cc1ccccc1)NC(=O)[C@H](CCCCN)NC(=O)[C@H](CO)NC(=O)[C@@H](NC(=O)[C@H](CC(=O)O)NC(=O)[C@H](CO)NC(=O)[C@@H](NC(=O)[C@H](Cc1ccccc1)NC(=O)[C@@H](NC(=O)CNC(=O)[C@H](CCC(N)=O)NC(=O)C(C)(C)NC(=O)[C@@H](N)Cc1c[nH]cn1)[C@@H](C)O)[C@@H](C)O)C(C)C)C(C)C)C(=O)N[C@@H](CC(C)C)C(=O)N[C@@H](CCC(=O)O)C(=O)NC(C)(C)C(=O)NCC(=O)O) [Peptide 138] | 104 | 184
